Reference: patent publication US20240010707A1 (BIOTEST, published 2024)

Biological target: T1, von Willebrand factor (UniProt P04275 764-2813, limits assumed)
T1 construct: also called vWF
Assay: ELISA on coated vWF, bound FVIII detected with chromogenic Coatest SP FVIII reagents; reference value set by definition
Procedure: All other potencies were calculated in relation to ReFacto AF. […] However, the only significant difference could be detected between Nuwiq and FVIII-19M. The reduced binding, also of FVIII-6rs, might be due to different post-translational modifications made by the CAP-T cells. This could be correlated with the reduced sulfation detected in the heavy and light chain in the Western Blot. Missing sulfation might have influenced vWF binding, as especially the sulfation at Y1683 is important for the binding of vWF.
For the detection of the binding of the FVIII constructs to vWF, another ELISA was performed. In this case, vWF was coated to the wells of a 96-well plate at a concentration of 0.1 U/ml. Afterwards the FVIII variants were applied at a concentration of 0.25 U/ml. ReFacto AF was used as a reference. Each sample was furtheron diluted 1:2 in buffer. A total of 7 serial dilutions were performed. […] After addition of the substrate, the plate was immediately put into a plate reader and the development of the chromogenic substrate was measured at 405 nm for 490 seconds. The generated curves were analyzed using the PLA 3.0 software. Potencies of vWF-binding of the different FVIII products were calculated in relation to ReFacto AF.

B1: ReFacto AF (other)
chain: ATRRYYLGAVELSWDYMQSDLGELPVDARFPPRVPKSFPFNTSVVYKKTLFVEFTDHLFNIAKPRPPWMGLLGPTIQAEVYDTVVITLKNMASHPVSLHAVGVSYWKASEGAEYDDQTSQREKEDDKVFPGGSHTYVWQVLKENGPMASDPLCLTYSYLSHVDLVKDLNSGLIGALLVCREGSLAKEKTQTLHKFILLFAVFDEGKSWHSETKNSLMQDRDAASARAWPKMHTVNGYVNRSLPGLIGCHRKSVYWHVIGMGTTPEVHSIFLEGHTFLVRNHRQASLEISPITFLTAQTLLMDLGQFLLFCHISSHQHDGMEAYVKVDSCPEEPQLRMKNNEEAEDYDDDLTDSEMDVVRFDDDNSPSFIQIRSVAKKHPKTWVHYIAAEEEDWDYAPLVLAPDDRSYKSQYLNNGPQRIGRKYKKVRFMAYTDETFKTREAIQHESGILGPLLYGEVGDTLLIIFKNQASRPYNIYPHGITDVRPLYSRRLPKGVKHLKDFPILPGEIFKYKWTVTVEDGPTKSDPRCLTRYYSSFVNMERDLASGLIGPLLICYKESVDQRGNQIMSDKRNVILFSVFDENRSWYLTENIQRFLPNPAGVQLEDPEFQASNIMHSINGYVFDSLQLSVCLHEVAYWYILSIGAQTDFLSVFFSGYTFKHKMVYEDTLTLFPFSGETVFMSMENPGLWILGCHNSDFRNRGMTALLKVSSCDKNTGDYYEDSYEDISAYLLSKNNAIEPRSFSQNPPVLKRHQREITRTTLQSDQEEIDYDDTISVEMKKEDFDIYDEDENQSPRSFQKKTRHYFIAAVERLWDYGMSSSPHVLRNRAQSGSVPQFKKVVFQEFTDGSFTQPLYRGELNEHLGLLGPYIRAEVEDNIMVTFRNQASRPYSFYSSLISYEEDQRQGAEPRKNFVKPNETKTYFWKVQHHMAPTKDEFDCKAWAYFSDVDLEKDVHSGLIGPLLVCHTNTLNPAHGRQVTVQEFALFFTIFDETKSWYFTENMERNCRAPCNIQMEDPTFKENYRFHAINGYIMDTLPGLVMAQDQRIRWYLLSMGSNENIHSIHFSGHVFTVRKKEEYKMALYNLYPGVFETVEMLPSKAGIWRVECLIGEHLHAGMSTLFLVYSNKCQTPLGMASGHIRDFQITASGQYGQWAPKLARLHYSGSINAWSTKEPFSWIKVDLLAPMIIHGIKTQGARQKFSSLYISQFIIMYSLDGKKWQTYRGNSTGTLMVFFGNVDSSGIKHNIFNPPIIARYIRLHPTHYSIRSTLRMELMGCDLNSCSMPLGMESKAISDAQITASSYFTNMFATWSPSKARLHLQGRSNAWRPQVNNPKEWLQVDFQKTMKVTGVTTQGVKSLLTSMYVKEFLISSSQDGHQWTLFFQNGKVKVFQGNQDSFTPVVNSLDPPLLTRYLRIHPQSWVHQIALRMEVLGCEAQDLY
potency of binding to vWF (relative to ReFacto AF): 1 relative potency
